Consider 37 molecules from patent US20260209386A1 (MYTHIC THERAPEUTICS, published 2026).

Positions count from the first letter of the chain named.

Assay [1] has as its target T1, Human PTK7 Protein, His Tag (Acro Biosystems) (human, UniProt Q13308 31-704).
T1 construct: Bought His-tagged protein; also called CCK4; not shown: His tag
T1 sequence: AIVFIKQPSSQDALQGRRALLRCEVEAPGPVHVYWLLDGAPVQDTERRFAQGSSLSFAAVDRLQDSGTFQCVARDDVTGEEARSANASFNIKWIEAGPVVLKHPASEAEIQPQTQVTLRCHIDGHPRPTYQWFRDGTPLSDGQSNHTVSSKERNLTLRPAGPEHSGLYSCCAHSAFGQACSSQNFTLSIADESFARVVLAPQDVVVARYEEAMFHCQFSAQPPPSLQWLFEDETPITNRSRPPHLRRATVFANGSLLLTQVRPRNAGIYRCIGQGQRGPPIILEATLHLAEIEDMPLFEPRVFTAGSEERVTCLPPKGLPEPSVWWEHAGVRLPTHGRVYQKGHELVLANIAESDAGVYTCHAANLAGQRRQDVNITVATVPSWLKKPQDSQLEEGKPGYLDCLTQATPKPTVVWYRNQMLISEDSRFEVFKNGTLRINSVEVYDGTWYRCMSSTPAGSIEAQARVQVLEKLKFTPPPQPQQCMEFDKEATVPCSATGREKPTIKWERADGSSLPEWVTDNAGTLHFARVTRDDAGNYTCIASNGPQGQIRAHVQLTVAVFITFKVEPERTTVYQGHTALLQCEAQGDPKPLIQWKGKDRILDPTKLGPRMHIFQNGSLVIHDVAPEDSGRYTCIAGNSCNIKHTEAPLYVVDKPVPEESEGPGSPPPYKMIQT
Kind of assay: BLI (Octet), antibody on anti-human Fc sensor, 50 nM PTK7; grade 2 = substantially similar binding relative to parent. (In general: In BLI a coated tip is dipped into the sample, and binding shifts an interference pattern.)

Assay [2] has as its target T2, Human PTK7 Protein, His Tag, Acro Biosystems (human, UniProt Q13308 31-704).
T2 construct: Bought recombinant protein; also called CCK4; not shown: His tag
T2 sequence: T1 sequence
Kind of assay: BLI, anti-human Fc capture, 50 nM PTK7; 2 = substantially similar binding relative to parent.

B1: MYT11047 (antibody, V domains shown)
VH: EVQLVESGGGLVQPGGSLRLSCTASGLSLSSYWMSWVRQAPGKGLEWVGVISAGGNTYYHNWAKGRFTISRDTSKNTVYLQMNSLRAEDTAVYFCARGDDGYTNAAYVSNLWGQGTLVTVSS
VL: EIVMTQSPSTLSASVGDRVIITCQASQSISSWLSWYQQKPGKAPKLLIYKASTLASGVPSRFSGSGSGAEFTLTISSLQPDDFATYYCQSYFDSTTIAFGQGTKLTVL
notes: MYT9361 HC variant
As to B1, in assay [1], the binding result is reported as “binds”.

B2: MYT11057 (antibody, V domains shown)
VH: B1 VH with H60A, D100H
VL: B1 VL
notes: MYT9361 HC variant
For B2, in assay [1], the binding result is “binds”.

B3: MYT11076 (antibody, V domains shown)
VH: B1 VH with H60A
VL: B1 VL with S28H
notes: MYT9361 LC variant
For the molecule B3, the binding result in assay [1] is on record as “binds”.

B4: MYT11049 (antibody, V domains shown)
VH: B1 VH with H60A, W62H
VL: B1 VL
notes: MYT9361 HC variant
In the case of B4, in assay [1], the binding result is given as “binds”.

B5: MYT11083 (antibody, V domains shown)
VH: B1 VH with H60A
VL: B1 VL with K50H
notes: MYT9361 LC variant
For B5, in assay [1], the binding result is “binds”.

B6: MYT11095 (antibody, V domains shown)
VH: B1 VH with H60A
VL: B1 VL with S94H
notes: MYT9361 LC variant
For the molecule B6, the binding result in assay [1] is “binds”.

B7: MYT11089 (antibody, V domains shown)
VH: B1 VH with H60A
VL: B1 VL with S56H
notes: MYT9361 LC variant
For B7, in assay [1], the binding result is reported as “binds”.

B8: MYT11064 (antibody, V domains shown)
VH: B1 VH with H60A, Y107H
VL: B1 VL
notes: MYT9361 HC variant
Take B8: the binding result in assay [1] is listed as “binds”.

B9: MYT11073 (antibody, V domains shown)
VH: B1 VH with H60A
VL: B1 VL with A25H
notes: MYT9361 LC variant
B9: the binding result in assay [1] is given as “binds”.

B10: MYT11048 (antibody, V domains shown)
VH: B1 VH with H60A, N61H
VL: B1 VL
notes: MYT9361 HC variant
B10: the binding result in assay [1] is “binds”.

B11: MYT11090 (antibody, V domains shown)
VH: B1 VH with H60A
VL: B1 VL with Q89H
notes: MYT9361 LC variant
Take B11: in assay [1], the binding result is “binds”.

B12: MYT11087 (antibody, V domains shown)
VH: B1 VH with H60A
VL: B1 VL with L54H
notes: MYT9361 LC variant
B12: the binding result in assay [1] is recorded as “binds”.

B13: MYT11065 (antibody, V domains shown)
VH: B1 VH with H60A, V108H
VL: B1 VL
notes: MYT9361 HC variant
Take B13: the binding result in assay [1] is on record as “binds”.

B14: MYT11088 (antibody, V domains shown)
VH: B1 VH with H60A
VL: B1 VL with A55H
notes: MYT9361 LC variant
For B14, in assay [1], the binding result was “binds”.

B15: MYT11060 (antibody, V domains shown)
VH: B1 VH with H60A, T103H
VL: B1 VL
notes: MYT9361 HC variant
For B15, in assay [1], the binding result is recorded as “binds”.

B16: MYT11080 (antibody, V domains shown)
VH: B1 VH with H60A
VL: B1 VL with W32H
notes: MYT9361 LC variant
As to B16, the binding result in assay [1] was “binds”.

B17: MYT11092 (antibody, V domains shown)
VH: B1 VH with H60A
VL: B1 VL with Y91H
notes: MYT9361 LC variant
For B17, in assay [1], the binding result is “binds”.

B18: MYT11067 (antibody, V domains shown)
VH: B1 VH with H60A, N110H
VL: B1 VL
notes: MYT9361 HC variant
Turning to B18, the binding result in assay [1] was “binds”.

B19: MYT11061 (antibody, V domains shown)
VH: B1 VH with H60A, N104H
VL: B1 VL
notes: MYT9361 HC variant
Take B19: the binding result in assay [1] is “binds”.

B20: MYT11075 (antibody, V domains shown)
VH: B1 VH with H60A
VL: B1 VL with Q27H
notes: MYT9361 LC variant
Turning to B20, the binding result in assay [1] is “binds”.

B21: MYT11072 (antibody, V domains shown)
VH: B1 VH with H60A
VL: B1 VL with Q24H
notes: MYT9361 LC variant
Turning to B21, the binding result in assay [1] is reported as “binds”.

B22: MYT11052 (antibody, V domains shown)
VH: B1 VH with H60A, G65H
VL: B1 VL
notes: MYT9361 HC variant
Take B22: the binding result in assay [1] is given as “binds”.

B23: MYT11099 (antibody, V domains shown)
VH: B1 VH with H60A
VL: B1 VL with A98H
notes: MYT9361 LC variant
As for B23, the binding result in assay [1] is on record as “binds”.

B24: MYT11051 (antibody, V domains shown)
VH: B1 VH with H60A, K64H
VL: B1 VL
notes: MYT9361 HC variant
With B24, the binding result in assay [1] is given as “binds”.

B25: MYT11085 (antibody, V domains shown)
VH: B1 VH with H60A
VL: B1 VL with S52H
notes: MYT9361 LC variant
Take B25: the binding result in assay [1] is listed as “binds”.

B26: MYT11054 (antibody, V domains shown)
VH: B1 VH with H60A, R97H
VL: B1 VL
As for B26, in assay [1], the binding result is on record as “binds”.

B27: MYT11071 (antibody, V domains shown)
VH: B1 VH with H60A, D100A
VL: B1 VL
notes: MYT9361 HC alanine variant
Turning to B27, in assay [1], the binding result is listed as “binds”.

B28: MYT11074 (antibody, V domains shown)
VH: B1 VH with H60A
VL: B1 VL with S26H
notes: MYT9361 LC variant
Take B28: in assay [1], the binding result is reported as “binds”.

B29: MYT11098 (antibody, V domains shown)
VH: B1 VH with H60A
VL: B1 VL with I97H
notes: MYT9361 LC variant
On to B29, for which, in assay [1], the binding result is listed as “binds”.

B30: MYT11070 (antibody, V domains shown)
VH: B1 VH with H60A, D99A
VL: B1 VL
notes: MYT9361 HC alanine variant
Regarding B30, in assay [1], the binding result is “binds”.

B31: MYT11097 (antibody, V domains shown)
VH: B1 VH with H60A
VL: B1 VL with T96H
notes: MYT9361 LC variant
Consider B31, for which the binding result in assay [1] was “binds”.

B32: MYT11086 (antibody, V domains shown)
VH: B1 VH with H60A
VL: B1 VL with T53H
notes: MYT9361 LC variant
Turning to B32, the binding result in assay [1] was “binds”.

B33: MYT11066 (antibody, V domains shown)
VH: B1 VH with H60A, S109H
VL: B1 VL
notes: MYT9361 HC variant
As for B33, the binding result in assay [1] is given as “binds”.

B34: MYT11062 (antibody, V domains shown)
VH: B1 VH with H60A, A105H
VL: B1 VL
notes: MYT9361 HC variant
Regarding B34, the binding result in assay [1] was “binds”.

B35: MYT11055 (antibody, V domains shown)
VH: B1 VH with H60A, G98H
VL: B1 VL
notes: MYT9361 HC variant
Regarding B35, the binding result in assay [1] is reported as “binds”.

B36: MYT11050 (antibody, V domains shown)
VH: B1 VH with H60A, A63H
VL: B1 VL
notes: MYT9361 HC variant
As for B36, the binding result in assay [1] is reported as “binds”.

B37: MYT11102 (antibody, V domains shown)
VH: EVQLVESGGGLVQPGGSLRLSCTASHFSLSTYAMSWVRQAPGKGLEWVGMIYINDNTYYASWAKGRFTISRDTSKNTVYLQMNSLRAEDTAVYFCARDIGISYYIGVSLWGQGTLVTVSS
VL: EIVMTQSPSTLSASVGDRVIITCQASQSIGTRLSWYQQKPGKAPKLLIYGASKLATGVPSRFSGSGSGAEFTLTISSLQPDDFATYYCLGEYSYTTTDGIAFGQGTKLTVL
notes: MYT9412 HC variant
For B37, the binding result in assay [2] was “binds”.
